B1: human Rspo2: N160Q (protein)
parent chain: MQFRLFSFALIILNCMDYSHCQGNRWRRSKRASYVSNPICKGCLSCSKDNGCSRCQQKLFFFLRREGMRQYGECLHSCPSGYYGHRAPDMNRCARCRIENCDSCFSKDFCTKCKVGFYLHRGRCFDECPDGFAPLEETMECVEGCEVGHWSEWGTCSRNNRTCGFKWGLETRTRQIVKKPVKDTILCPTIAESRRCKMTMRHCPGGKRTPKAKEKRNKKKKRKLIERAQEQHSVFLATDRANQ
B2: human Rspo2: E136N (protein)
parent chain: B1 parent chain
B3: human Rspo1 (R-spondin 1): N137Q (protein)
parent chain: MRLGLCVVALVLSWTHLTISSRGIKGKRQRRISAEGSQACAKGCELCSEVNGCLKCSPKLFILLERNDIRQVGVCLPSCPPGYFDARNPDMNKCIKCKIEHCEACFSHNFCTKCKEGLYLHKGRCYPACPEGSSAANGTMECSSPAQCEMSEWSPWGPCSKKQQLCGFRRGSEERTRRVLHAPVGDHAACSDTKETRRCTVRRVPCPEGQKRRKGGQGRRENANRNLARKESKEAGAGSRRRKGQQQQQQQGTVGPLTSAGPA
B4: human Rspo1 (R-spondin 1): Q163N/L165T (protein)
parent chain: B3 parent chain
B5: human Rspo1 (R-spondin 1): castanospermine (protein)
parent chain: B3 parent chain
B6: human Rspo1 (R-spondin 1): tunicamycin (protein)
parent chain: B3 parent chain
B7: human Rspo3: N137Q (protein)
parent chain: MHLRLISWLFIILNFMEYIGSQNASRGRRQRRMHPNVSQGCQGGCATCSDYNGCLSCKPRLFFALERIGMKQIGVCLSSCPSGYYGTRYPDINKCTKCKADCDTCFNKNFCTKCKSGFYLHLGKCLDNCPEGLEANNHTMECVSIVHCEVSEWNPWSPCTKKGKTCGFKRGTETRVREIIQHPSAKGNLCPPTNETRKCTVQRKKCQKGERGKKGRERKRKKPNKGESKEAIPDSKSLESSKEIPEQRENKQQQKKRKVQDKQKSVSVSTVH
B8: human Rspo3: tunicamycin (protein)
parent chain: B7 parent chain

Tests used:
[1] = Western densitometry, % in media, 48 h; conditions: control: wild type
[2] = secreted protein in media at 37 °C, Western; conditions: glycan lost; control: wild type
[3] = AHA pulse-chase, intracellular protein; conditions: glycan lost; control: wild type
[4] = Western densitometry, % in media; conditions: glycan gained; control: wild type
[5] = Western blot of conditioned media; conditions: control: untreated

Row | Protein | expression_or_secretion, other: percent of total protein in media ([1]; glycan lost) | degradation_or_half_life, half_life [2] | also measured
1 | B1 | decreases, 18% vs 34% | decreases, 12 vs 36 | –
2 | B2 | – | – | expression_or_secretion, other: percent of total protein in media ([1]; glycan gained): increases, two-fold vs 34%
3 | B3 | decreases, 32% vs 56% | no change, ~48 vs >48 | degradation_or_half_life, half_life [3]: decreases, 0.6 vs 0.9
4 | B4 | – | – | expression_or_secretion, fold_change [4]: increases
5 | B5 | – | – | expression_or_secretion ([5]; glycan changed form): decreases
6 | B6 | – | – | expression_or_secretion ([5]; glycan lost): decreases
7 | B7 | decreases, 44% vs 67% | no change, >48 vs >48 | –
8 | B8 | – | – | expression_or_secretion ([5]; glycan lost): decreases
